This is an account of results in patent US20110052565A1 (NATIONAL RESEARCH COUNCIL OF CANADA, published 2011).

Experiment [1] deals with T1, porcine pancreatic α-amylase (porcine, UniProt P00690 16-511).
T1 construct: Bought (Sigma); The source is named only for the ELISA with soluble VHs; the panning and phage ELISA paragraphs say only α-amylase; also called a-amylase
T1 sequence (looked up): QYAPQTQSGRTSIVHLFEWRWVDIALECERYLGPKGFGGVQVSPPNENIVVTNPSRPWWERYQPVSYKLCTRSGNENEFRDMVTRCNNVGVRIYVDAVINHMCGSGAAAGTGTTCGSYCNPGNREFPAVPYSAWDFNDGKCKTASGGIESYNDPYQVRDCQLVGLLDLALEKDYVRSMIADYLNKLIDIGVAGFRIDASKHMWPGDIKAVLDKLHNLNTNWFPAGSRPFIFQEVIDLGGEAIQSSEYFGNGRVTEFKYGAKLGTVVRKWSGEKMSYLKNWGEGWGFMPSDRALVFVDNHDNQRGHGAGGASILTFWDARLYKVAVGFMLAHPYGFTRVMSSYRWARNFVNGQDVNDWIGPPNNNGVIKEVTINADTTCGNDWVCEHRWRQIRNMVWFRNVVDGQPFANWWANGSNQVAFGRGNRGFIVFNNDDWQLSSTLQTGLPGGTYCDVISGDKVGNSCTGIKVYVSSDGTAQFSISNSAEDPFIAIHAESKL
The experiment is described as follows: phage ELISA, round 3 of heat denaturation panning; VH displayed on phage; member by Table 2, column R3. The procedure: For selection by heat denaturation, input phage in a multivalent display format was used (i.e., the phages were produced by using hyperphage for superinfection). The input phage was heated at 80° C. for 10 min, cooled at 4° C. for 20 min, centrifuged at maximum speed for 2 min in a microfuge and the supernatant was added to antigen-coated wells for binding. Three rounds of panning against α-amylase by the heat denaturation method were performed. A non-treatment panning was also carried out in parallel as control. […] Monoclonal Phage ELISA on single colonies was performed (Arbabi-Ghahroudi et al., 2009). ELISA-positive clones were subjected to DNA sequencing to identify their VHs (Arbabi-Ghahroudi et al., 2009). Isoelectric points, pIs, of the VHs were determined using the software Laser gene v6.0 (DNASTAR, Inc., Madison, Wis.).
For orientation: In an ELISA, binding on a coated surface is turned into a signal by an enzyme label.

Experiment [2] concerns the target T1, porcine pancreatic α-amylase. The experiment is described as follows: phage ELISA, round 4 of heat denaturation panning; VH displayed on phage; member by Table 2, column R4.
In the next experiment the target is T2, bovine serum albumin (bovine, UniProt P02769 25-607).
T2 construct: also called BSA
The experiment is described as follows: ELISA, immobilized BSA, His6-tagged VH detected with anti-His-IgG/HRP (FIG. 9A).

The target in experiment [3] is T1, porcine pancreatic α-amylase. Description: ELISA, immobilized porcine pancreatic α-amylase, His6-tagged VH, anti-His-IgG/HRP. The procedure: To assess binding of VHs to a-amylase by ELISA, Maxisorp™ microtiter plates (Nunc) were coated with 100 μL of 10 μg/mL porcine pancreatic α-amylase (Sigma, Oakville, ON, Canada) in PBS overnight at 4° C. After blocking with 3% bovine serum albumin (300 μL) for 2 h at 37° C. and subsequent removal of blocking agent, 100 μL His₆-tagged VHs at concentrations of a few μM were added, followed by incubation for 2 h at 37° C. Wells were washed 5× with PBST and 100 μL rabbit anti-His-IgG/horse radish peroxidase (HRP) conjugate (Bethyl Laboratories, Inc., Montgomery, Tex.) was added at a dilution of 1:5000. The wells were then incubated for 1 h at 37° C. After washing the wells with PBST, 100 μL […] substrate (KPL, Gaithersburg, Md.) was added and the reaction, seen as color development, was stopped after 5 min by adding 100 μL of 1 M phosphoric acid. Absorbance values were measured at a wavelength of 450 nm using a microtiter plate reader. […] Assays were performed in duplicates.

Experiment [4] concerns the target T3, protein A (UniProt P38507 37-477).
T3 construct: Immobilized unconjugated on a CM5 chip in SPR; used as HRP conjugate in the ELISA; also called protein A/HRP conjugate; horseradish peroxidase-protein A conjugate
Description: SPR (Biacore 3000), protein A immobilized; KD of native VH over KD of heat-denatured/cooled VH, unfolded at 5 µM. The procedure:
(§1) Immobilizations were carried out at a protein concentration of 50 μg/mL in 10 mM acetate buffer pH 4.5 using amine coupling kit supplied by the manufacturer. AD VHs were passed though Superdex™ 75 column (GE Healthcare) and the monomeric species were collected for refolding efficiency experiments. To obtain refolding efficiency values, VHs were incubated at 85° C. for 20 min at the concentration of 0.5 and 5 μM and were cooled to room temperature for 30 min. The VHs were centrifuged at 16,000 g in a microfuge for 5 min at 22° C. to pellet and remove any possible aggregates. […] The surfaces were washed thoroughly with the running buffer for regeneration. Refolding efficiencies were calculated from the amounts bound at steady state. Data were analyzed with BIAevaluation 4.1 software.

The target in experiment [5] is T3, protein A. Description: SPR (Biacore 3000), protein A immobilized; KD of native VH over KD of heat-denatured/cooled VH, unfolded at 0.5 µM. As for the experimental part:
as §1
On the technique in general: SPR reads the build-up and loss of mass on a sensor chip optically.

The target of experiment [6] is T1, porcine pancreatic α-amylase. The experiment is described as follows: told in the legend of the α-amylase inhibition figure (FIG. 10).
Description: Briefly, the enzyme at a final concentration of 1.5 μg/mL in 0.1% casein, 150 mM NaCl, 2 mM CaCl₂, 50 mM Tris-HCl pH 7.4 was preincubated with various concentrations of purified monomeric anti-α-amylase VHs at room temperature for 1 h (total volume: 50 μL). The mixture was split in two ELISA wells and to each well 75 μL of substrate solution (0.2 mM 2-chloro-4-nitrophenyl maltotrioside, 150 mM NaCl, 2 mM CaCl₂, 50 mM Tris-HCl pH 7.4) was added. […] The progress of reactions was monitored continuously at 25° C. by measuring the change in absorbance of reaction solutions at 405 nm (ΔA405 nm) using a PowerWave 340 microplate spectrophotometer (BioTek Instruments, Inc. Winooski, Vt.). […] The VHs was thus analyzed by ELISA.

T2 sequence (P02769 25-607 limits assumed): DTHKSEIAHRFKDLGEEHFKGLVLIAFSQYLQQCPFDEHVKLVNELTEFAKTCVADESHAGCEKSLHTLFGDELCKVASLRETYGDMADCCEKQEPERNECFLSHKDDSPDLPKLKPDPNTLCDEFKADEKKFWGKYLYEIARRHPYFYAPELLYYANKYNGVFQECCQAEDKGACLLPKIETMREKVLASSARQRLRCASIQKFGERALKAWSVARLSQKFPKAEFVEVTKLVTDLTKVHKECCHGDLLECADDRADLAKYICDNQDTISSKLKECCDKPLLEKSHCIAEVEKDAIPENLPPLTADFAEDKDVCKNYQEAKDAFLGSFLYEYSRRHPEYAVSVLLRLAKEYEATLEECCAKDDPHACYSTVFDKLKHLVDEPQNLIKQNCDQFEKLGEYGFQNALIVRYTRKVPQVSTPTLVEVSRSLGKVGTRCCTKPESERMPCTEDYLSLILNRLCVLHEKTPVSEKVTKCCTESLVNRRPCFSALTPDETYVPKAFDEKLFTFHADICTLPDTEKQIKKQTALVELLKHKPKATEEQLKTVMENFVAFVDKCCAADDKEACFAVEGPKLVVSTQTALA

B1: huVHAm301 (other, not shown: small tags and cut ends)
VH: QVQLVESGGGLIKPGGSLRLPCAASGFRISHEGMGWVRQAPGKGLEWVSAISSSGGSTYYADSVKGRFTISRDNSKNTAYLQMNSLRAEDTAVYYCVAYNEECTKPSCHTKARSWGQGTMVTVSS
notes: amber codon read as Glu in E. coli TG1
Turning to B1, in experiment [1], the binding result was “binds”.

B2: huVHAm430 (other, not shown: small tags and cut ends)
VH: QVQLVESGGGLIKPGGSLRLSCAASGDRVSPEDMAWVRQAPGKGLEWVSAISSSGGSTYYADSVKGRFTISRDNSKNTVYLQMNSLRAEDTAVYYCVTSGVPSGSFWGQETMVTVSS
notes: as for B1
As to B2, the binding result in experiment [2] is listed as “binds”.

B3: huVHAm420 (other, not shown: small tags and cut ends)
VH: QVQLVESGGGLIKPGGSLRLSCAASGDRFSYEDMAWVPQAPGKGLEWVSAISSSGGSTYYADSVKGRFTISRDNSKNTVYLQMNSLRAEDTAVYYCVATEESCPEGNCPPPRRSWGQETMVTVSS
notes: as for B1
For the molecule B3, the binding result in experiment [2] was “binds”.

B4: huVHAm406 (other, not shown: small tags and cut ends)
VH: QVQLVESGGGLIKPGGSLRLSCAASGFSFTPECMGWVRQAPGKGLEWVSAISSSGGSTYYADSVKGRFTISRDNSKNTVYLQMNSLRAEDTAVYYCVGHKNNCPGQGTMVTVSS
notes: as for B1
Take B4: in experiment [2], the binding result is “binds”.

B5: huVHAm428 (other)
VH: QVQLVESGGGLIKPGGSLRLSCAASGFSLSDDCMGWVRQAPGKGLEWVSAISSSGGSTYYADSVKGRFTISRDNSKNTVYLQMNSLRAEDTAVYYCVTGNQACKHEPWPDEALLLGPRDNVTVSS
notes: Human VH single-domain antibody, soluble, amber codon replaced by Glu; In the phage ELISA rows the same VH stood on phage (pIII fusion); not shown: C-terminal c-Myc-His6 tag from vector pSJF2H
For B5, the binding result is “no binding” in the experiment with bovine serum albumin and “binds” in experiment [3]. Further, the entries for the “TRE (%) (ratio of KDn to KDref)” value with protein A [4] and in the experiment with protein A [5] were 86% and 89%, respectively.

B6: huVHAm309 (other)
VH: QVQLVESGGGLIKPGGSLRLSCAASGVNFSNEGMAWVRQAPGKGLEWVSAISSSGGSTYYADSVKGRFTISRDNSKNTVYLQMNSLRAEDTAVYYCVTAQRACANSPCPGSITSWGQETMVTVSS
notes: as for B5
Consider B6, for which the binding result is listed as “no binding” with bovine serum albumin and “binds” in experiment [3]. For the same molecule, the “TRE (%) (ratio of KDn to KDref)” value came out at 93% with protein A [4] and 94% in the experiment with protein A [5].

B7: huVHAm311 (other, not shown: small tags and cut ends)
VH: QVQLVESGGGLIKPGGSLRLSCAASGFRVTPECMTWVRQAPGKGLEWVSAISSSGGSTYYADSVKGRFTISRDNSKNTVYLQMNSLRAEDTAVYYCVRHEVECPTEQCPFHCPSWGQGTMVTVSS
notes: as for B1
As for B7, the binding result in experiment [1] was “binds”.

B8: huVHAm427 (other)
VH: QVQLVESGGGLIKPGGSLRLSCAASGVTLSPECMAWVRQAPGKGLEWVSAISSSGGSTYYADSVKGRFTISRDNSKNTVYLQMNSLRAEDTAVYYCVSCEGENAFWGQGTMVTASS
notes: as for B5
With B8, in experiment [2], the binding result is “binds”.

B9: huVHAm416 (other)
VH: QVQLVESGGGLIKPGGSLRLSCAASGVSFTDDCMAWVRQAPGKGLEWVSAISSSGGSTYYADSVKGRFTISRDNSKNTVYLQMNSLRAEDTAVYYCVADHTQCRQPECESQLCSWGQGTMVTVSS
notes: as for B5
On to B9, for which the binding result with bovine serum albumin is “no binding”; in experiment [3], “binds”. Besides, the results for the “TRE (%) (ratio of KDn to KDref)” value with protein A [4] and with protein A [5] were 97% and 100%, respectively.

B10: huVHAm305 (other, not shown: small tags and cut ends)
VH: QVQLVESGGGLIKPGGSLRLSCAASGYRFNNEVMGWVRQAPGKGLEWVSAISSSGGSTYYADSVKGRFTISRDNSKNTVYLQMNSLRAEDTAVYYCVTSTPACNQDKCERWRPSWGQGTMVTASS
notes: as for B1
For the molecule B10, the binding result in experiment [1] was “binds”.

B11: huVHAm315 (other)
VH: QVQLVESGGGLIKPGGSLRLSCAASGDMFSSEGMAWVRQAPGKGLEWVSAISSSGGSTYYADSVKGRFTISRDNSKNTVYLQMNSLRAEDTAVYYCVAAPTTCTSHNCAEPFRSWGQETMVTVSS
notes: as for B5
As to B11, the binding result in experiment [1] is reported as “binds”.

B12: huVHAm303 (other, not shown: small tags and cut ends)
VH: QVQLVESGGGLIKPGGSLRLSCAASGFRFSYEVMGWVRQAPGKGLEWVSAISSSGGSTYYADSVKGRFTISRDNSKNTVYLQMNSLRAEDTAVYYCVTPKVDCETHPCRERPYFWGQGTMVTVSS
notes: as for B1
As to B12, in experiment [1], the binding result was “binds”.

B13: huVHAm431 (other)
VH: QVQLVESGGGLIKPGGSLRLSCAASGYTVSSECMGWVRQAPGKGLEWVSAISSSGGSTYYADSVKGRFTISRDNSKNTVYLQMNSLRAEDTAVYYCVRDSKNCHDKDCTRPYCSWGQGTMVTVSS
notes: Human VH single-domain antibody, soluble; In the phage ELISA rows the same VH stood on phage (pIII fusion); not shown: C-terminal c-Myc-His6 tag from vector pSJF2H
In the case of B13, the binding result in experiment [2] is “binds”.

B14: huVHAm302 (other)
VH: QVQLVESGGGLIKPGGSLRLSCAASGDTVSDESMTWVRQAPGKGLEWVSAISSSGGSTYYADSVKGRFTISRDNSKNTVYLQMNSLRAEDTAVYYCVTDNRSCQTSLCTSTTRSWGQGTMVTVSSGSEQKLSEEDLNHHHHHH
modifications: N-terminus pyroglutamine (pyroQ)
notes: Human VH single-domain antibody, soluble with c-Myc-His6 tag, amber codon at position 32 replaced by Glu; In the phage ELISA rows the same VH stood on phage (pIII fusion)
B14: the binding result in experiment [6] is “binds”.

B15: huVHAm412 (other, not shown: small tags and cut ends)
VH: QVQLVESGGGLIKPGGSLRLSCAASGDMLSAECMGWVRQAPGKGLEWVSAISSSGGSTYYADSVKGRFTISRDNSKNTVYLQMNSLRAEDTAVYYCVAKPYHCAVQGTMVTVSS
notes: as for B1
Turning to B15, the binding result in experiment [2] is recorded as “binds”.

B16: huVHAm304 (other)
VH: VQLVESGGGLIEPGGSLRLSCAASGFSFSDEGMAWVRQAPGKGLEWVSAISSSGGSTYYADSVKGRFTISRDNSKNTVYLQMNSLRAEDTAVYYCVRLPKQCTSPDCETEVSSWGQRTMVTVSS
notes: Human VH single-domain antibody, soluble, amber codons replaced by Glu; In the phage ELISA rows the same VH stood on phage (pIII fusion); not shown: C-terminal c-Myc-His6 tag from vector pSJF2H
Consider B16, for which, in the experiment with bovine serum albumin, the binding result is listed as “no binding”. The entries for the “TRE (%) (ratio of KDn to KDref)” value in the experiment with protein A [4] and with protein A [5] were 87% and 99%, respectively.

B17: huVHAm316 (other)
VH: QVQLVESGGGLIKPGGSLRLSCAASGDRFTYESMGWVRQAPGKGLEWVSAISSSGGSTYYADSVKGRFTISRDNSKNTVYLQMNSLRAEDTAVYYCVALETACTRPACAHTPRFWGQGTMVTVSS
notes: as for B5
For B17, the binding result in experiment [1] is “binds”.
